Broadly, the Kd is the free concentration of one partner at which half of the binding sites on the other are occupied at equilibrium, for simple one-to-one binding.

Values joined by “and” are separate entries in the source; they are usually repeats but may differ in a detail not shown here. Equal values may be shown once.

The target of one series is L1CAM on L1CAM-high cells (LoVo) (Homo sapiens?) (UniProt P32004). Kind of series: flow cytometry. To be noted: PBS, 4.5 g/L glucose, 5 mM MgCl2, 1 mg/mL BSA, 0.1 mg/mL herring sperm DNA; 30 min at 4 °C (or 25/37 °C); pH not stated. In general terms: A flow cytometer gives signals particle by particle.
Chain of L1CAM on L1CAM-high cells (LoVo) (Homo sapiens?) (P32004 20-1257): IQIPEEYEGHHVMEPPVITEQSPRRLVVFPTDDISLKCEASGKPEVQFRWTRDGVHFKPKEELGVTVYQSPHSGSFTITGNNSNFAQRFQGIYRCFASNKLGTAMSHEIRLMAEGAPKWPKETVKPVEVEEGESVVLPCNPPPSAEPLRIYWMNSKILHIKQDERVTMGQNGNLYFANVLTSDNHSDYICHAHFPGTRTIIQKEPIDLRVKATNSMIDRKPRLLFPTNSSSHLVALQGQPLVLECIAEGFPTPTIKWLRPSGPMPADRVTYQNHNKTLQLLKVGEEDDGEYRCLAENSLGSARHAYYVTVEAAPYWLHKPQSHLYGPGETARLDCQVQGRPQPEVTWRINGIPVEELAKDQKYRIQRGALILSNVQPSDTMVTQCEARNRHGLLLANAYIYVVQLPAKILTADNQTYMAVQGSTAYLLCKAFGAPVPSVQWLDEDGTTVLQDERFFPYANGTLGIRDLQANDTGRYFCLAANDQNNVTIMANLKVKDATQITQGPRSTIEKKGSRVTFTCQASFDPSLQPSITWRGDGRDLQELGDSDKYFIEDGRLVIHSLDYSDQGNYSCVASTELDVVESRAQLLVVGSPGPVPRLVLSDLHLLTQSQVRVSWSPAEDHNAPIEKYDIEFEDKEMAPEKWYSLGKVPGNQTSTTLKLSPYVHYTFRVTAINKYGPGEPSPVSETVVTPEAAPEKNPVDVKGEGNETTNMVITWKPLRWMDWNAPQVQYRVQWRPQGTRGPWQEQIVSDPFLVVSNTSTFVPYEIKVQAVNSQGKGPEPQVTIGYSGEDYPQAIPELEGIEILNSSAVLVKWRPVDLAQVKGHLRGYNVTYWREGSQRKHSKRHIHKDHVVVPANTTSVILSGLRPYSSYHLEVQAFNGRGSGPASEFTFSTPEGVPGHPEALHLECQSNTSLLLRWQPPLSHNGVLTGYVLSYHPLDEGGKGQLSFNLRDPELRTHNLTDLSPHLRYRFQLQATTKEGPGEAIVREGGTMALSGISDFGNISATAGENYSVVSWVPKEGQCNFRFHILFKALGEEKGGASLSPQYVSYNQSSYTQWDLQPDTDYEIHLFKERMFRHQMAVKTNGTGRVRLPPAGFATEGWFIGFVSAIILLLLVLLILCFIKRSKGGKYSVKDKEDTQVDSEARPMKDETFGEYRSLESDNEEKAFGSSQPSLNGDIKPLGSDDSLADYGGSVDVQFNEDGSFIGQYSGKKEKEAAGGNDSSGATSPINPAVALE
With “AGCGCAGATAGGGGGTAGCTCGGTCGTGTTTTTGGGTTGTTTGGTGGGTCTTCTGCGCT [yly21]”, the Kd was 1.3 nM and 0.9 nM and 5.1 nM.
In turn, “CAGATAGGGGGTAGCTAGGTCGTGTTTTTGGGTTGTTTGGTGGGTCTTCTG [yly20-C17A]” registered a Kd of 3.4 nM.
Still for that read-out and setting: then “CAGAAGGGGGTAGCTCGGTCGTGTTTTTGGGTTGTTTGGTGGGTCTTCTG [yly20-5-T]”, with 112 nM; and “CAGATAGGGGGTAGCTCGGTCGTGTTTCTGGGTTGTTTGGTGGGTCTTCTG [yly20-T28C]”, with 5.3 nM.
On the same count and under the same terms, then “CAGATAGGGGGTAGCTCGGTCGTGTTTTTGGGTTGTTTGGTGGGTCTTCTG [yly20]”, with 2.3 nM and 1.9 nM and 7.6 nM.
Consider “TTTGGGTTGTTTGGTGGGTCTTCTGCAGATAGGGGGTAGCTCGGTCGTGTT [yly20re]”, for which the Kd was 4.2 nM and 4.4 nM and 13 nM.
“CAGATAGGGGGTAGCTCGGTCGTGTTTTTGGGCTGTTTGGTGGGTCTTCTG [yly20-T33C]” returned a Kd of 9.5 nM.
Regarding “CAGATAGAGGGTAGCTCGGTCGTGTTTTTGGGTTGTTTGGTGGGTCTTCTG [yly20-G8A]”, the Kd stood at 18.9 nM.
Same read-out and setting: then “CAGATAGGGGGTAGCTCGGTCGTGTTTCCGGGTTGTTTGGTGGGTCTTCTG [yly20-T2829C]”, with 55.9 nM; and “CAGATAGGGGGTAGCCCGGTCGTGTTTTCGGGTTGTTTGGTGGGTCTTCTG [yly20-T1629C]”, with 155 nM.
For “CAGATAGGGGGTAGCTCGGTCGTGATTTTGGGTTGTTTGGTGGGTCTTCTG [yly20-T25A]”, the dissociation constant Kd is 1.7 nM.
Still for that read-out and setting: under “CAGATAGGGGGTAGCTCGGTCATGTTTTTGGGTTGTTTGGTGGGTCTTCTG [yly20-G22A]” stands 1.3 nM; under “AGGATAGGGGGTAGCTCGGTCGTGTTTTTGGGTTGTTTGGTGGGTCTTCTG [yly12]”, 21.6 nM and 111 nM.
Consider “CAGATAGGGGGTAGCCCGGTCGTGTTTTTGGGTTGTTTGGTGGGTCTTCTG [yly20-T16C]”, for which the equilibrium dissociation constant (Kd) turned out to be 44.2 nM.
Still for that read-out and setting: then “CAGATAGGGGGTAGCTCGGTCGTGTTTTCGGGTTGTTTGGTGGGTCTTCTG [yly20-T29C]”, with 4.2 nM; and “AGCGCAGAAGGGGGTAGCTCGGTCGTGTTTTTGGGTTGTTTGGTGGGTCTTCTGCGCT [yly21-9-T]”, with 107 nM.
Regarding “CGGATAGGGGGTAGCTCGGTCGTGTTTTTGGGTTGTTTGGTGGGTCTTCTG [yly34]”, the Kd is 3.4 nM and 7.2 nM and 18.7 nM.
On the same count and under the same terms, under “GGGATAGGGGGTAGCTCGGTCGTGTTTTTGGGTTGTTTGGTGGGTCTTCTG [yly33]” stands 6.2 nM and 12 nM and 41.4 nM; under “CAGATAGGGGGTAGCTCGGTCGTGTTTTTGGGTTGTTTGGTGGGTATTCTG [yly20-C46A]”, 46.4 nM.
Same read-out and setting: then “CAGATAGGGGGTAGCTCGGTCGTGTTTTTGGGTTGTTTGGTGGGCCTTCTG [yly20-T45C]”, with 66.9 nM.
“CAGATAGGGGGTAGCTCGGTCGTGTTTTTGGGTTATTTGGTGGGTCTTCTG [yly20-G35A]”: the dissociation constant (Kd) stood at 53.1 nM.

Staying with this series, now noted: PBS, 4.5 g/L glucose, 5 mM MgCl2, 1 mg/mL BSA, 0.1 mg/mL herring sperm DNA; 30 min at 4 °C (or 25/37 °C); pH not stated; cited from earlier work.
On to “AGGATAGGGGGTAGCTCGGTCGTGTTTTTGGGTTGTTTGGTGGGTCTT [yly13]”, for which the Kd was 369 nM.
In the case of “AGGATAGGGGGTAGCTCGGTCGTGTTTTTGGGTTGTTTGGTGGGTCTTCTG [yly12]”, the equilibrium dissociation constant (Kd) is 3.5 nM.
Take “TAGGGGGTAGCTCGGTCGTGTTTTTGGGTTGTTTGGTGGGTCTTCTG [yly16]”: the Kd was 330 nM.
With “ATAGGGGGTAGCTCGGTCGTGTTTTTGGGTTGTTTGGTGGGTCTTCTG [yly14]”, the Kd was 92 nM.

The values are drawn from paper PMC10218236.
